Experimental findings from publication PMC4615246 (Nucleus, 2015) are described below.

One assay deals with T1, LacI-CFP-Nup153 (human, UniProt P49790 1-1475).
T1 sequence: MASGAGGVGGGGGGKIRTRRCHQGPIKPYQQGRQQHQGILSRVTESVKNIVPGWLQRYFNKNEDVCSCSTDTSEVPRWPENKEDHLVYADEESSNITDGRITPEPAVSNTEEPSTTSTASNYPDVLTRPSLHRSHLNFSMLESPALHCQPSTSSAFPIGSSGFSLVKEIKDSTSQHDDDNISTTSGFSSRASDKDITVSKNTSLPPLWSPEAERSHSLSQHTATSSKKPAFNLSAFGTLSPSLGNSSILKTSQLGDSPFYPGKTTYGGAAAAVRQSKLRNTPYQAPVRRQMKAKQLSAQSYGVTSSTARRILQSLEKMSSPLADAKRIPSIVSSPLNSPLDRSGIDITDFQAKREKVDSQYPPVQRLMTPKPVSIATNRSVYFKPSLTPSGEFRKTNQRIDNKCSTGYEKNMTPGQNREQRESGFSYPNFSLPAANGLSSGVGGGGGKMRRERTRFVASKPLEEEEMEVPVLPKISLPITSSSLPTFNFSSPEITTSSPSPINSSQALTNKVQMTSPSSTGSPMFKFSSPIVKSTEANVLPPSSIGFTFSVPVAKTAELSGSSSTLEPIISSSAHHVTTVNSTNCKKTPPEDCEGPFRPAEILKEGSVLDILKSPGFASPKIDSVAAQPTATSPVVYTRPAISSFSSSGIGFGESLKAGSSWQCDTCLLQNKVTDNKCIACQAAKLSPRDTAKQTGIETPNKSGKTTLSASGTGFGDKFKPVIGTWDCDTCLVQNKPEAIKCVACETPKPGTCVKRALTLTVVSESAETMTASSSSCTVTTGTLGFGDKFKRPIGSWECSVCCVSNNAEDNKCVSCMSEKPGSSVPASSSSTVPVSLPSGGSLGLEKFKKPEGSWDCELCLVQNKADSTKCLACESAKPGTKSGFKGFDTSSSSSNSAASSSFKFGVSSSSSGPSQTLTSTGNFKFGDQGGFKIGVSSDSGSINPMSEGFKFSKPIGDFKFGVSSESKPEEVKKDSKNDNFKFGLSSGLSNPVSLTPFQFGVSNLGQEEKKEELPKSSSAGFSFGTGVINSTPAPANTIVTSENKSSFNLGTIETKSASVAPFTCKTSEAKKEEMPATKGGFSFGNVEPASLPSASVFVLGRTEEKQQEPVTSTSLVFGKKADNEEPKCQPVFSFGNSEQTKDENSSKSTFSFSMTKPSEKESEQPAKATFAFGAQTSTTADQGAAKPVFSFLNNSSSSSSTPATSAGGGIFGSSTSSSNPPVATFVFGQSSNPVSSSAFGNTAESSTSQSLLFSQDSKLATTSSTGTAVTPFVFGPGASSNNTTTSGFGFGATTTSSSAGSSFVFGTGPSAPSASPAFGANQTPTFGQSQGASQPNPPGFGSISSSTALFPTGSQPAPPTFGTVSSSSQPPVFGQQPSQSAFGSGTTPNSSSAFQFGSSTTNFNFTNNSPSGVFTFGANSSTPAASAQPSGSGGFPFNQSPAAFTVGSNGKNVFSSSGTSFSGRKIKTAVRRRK
The experiment in a line: LacI/LacO array recruitment in cells.

In the next assay the target is T2, LacI-CFP-Nup155 (human, UniProt O75694 1-1391).
T2 sequence: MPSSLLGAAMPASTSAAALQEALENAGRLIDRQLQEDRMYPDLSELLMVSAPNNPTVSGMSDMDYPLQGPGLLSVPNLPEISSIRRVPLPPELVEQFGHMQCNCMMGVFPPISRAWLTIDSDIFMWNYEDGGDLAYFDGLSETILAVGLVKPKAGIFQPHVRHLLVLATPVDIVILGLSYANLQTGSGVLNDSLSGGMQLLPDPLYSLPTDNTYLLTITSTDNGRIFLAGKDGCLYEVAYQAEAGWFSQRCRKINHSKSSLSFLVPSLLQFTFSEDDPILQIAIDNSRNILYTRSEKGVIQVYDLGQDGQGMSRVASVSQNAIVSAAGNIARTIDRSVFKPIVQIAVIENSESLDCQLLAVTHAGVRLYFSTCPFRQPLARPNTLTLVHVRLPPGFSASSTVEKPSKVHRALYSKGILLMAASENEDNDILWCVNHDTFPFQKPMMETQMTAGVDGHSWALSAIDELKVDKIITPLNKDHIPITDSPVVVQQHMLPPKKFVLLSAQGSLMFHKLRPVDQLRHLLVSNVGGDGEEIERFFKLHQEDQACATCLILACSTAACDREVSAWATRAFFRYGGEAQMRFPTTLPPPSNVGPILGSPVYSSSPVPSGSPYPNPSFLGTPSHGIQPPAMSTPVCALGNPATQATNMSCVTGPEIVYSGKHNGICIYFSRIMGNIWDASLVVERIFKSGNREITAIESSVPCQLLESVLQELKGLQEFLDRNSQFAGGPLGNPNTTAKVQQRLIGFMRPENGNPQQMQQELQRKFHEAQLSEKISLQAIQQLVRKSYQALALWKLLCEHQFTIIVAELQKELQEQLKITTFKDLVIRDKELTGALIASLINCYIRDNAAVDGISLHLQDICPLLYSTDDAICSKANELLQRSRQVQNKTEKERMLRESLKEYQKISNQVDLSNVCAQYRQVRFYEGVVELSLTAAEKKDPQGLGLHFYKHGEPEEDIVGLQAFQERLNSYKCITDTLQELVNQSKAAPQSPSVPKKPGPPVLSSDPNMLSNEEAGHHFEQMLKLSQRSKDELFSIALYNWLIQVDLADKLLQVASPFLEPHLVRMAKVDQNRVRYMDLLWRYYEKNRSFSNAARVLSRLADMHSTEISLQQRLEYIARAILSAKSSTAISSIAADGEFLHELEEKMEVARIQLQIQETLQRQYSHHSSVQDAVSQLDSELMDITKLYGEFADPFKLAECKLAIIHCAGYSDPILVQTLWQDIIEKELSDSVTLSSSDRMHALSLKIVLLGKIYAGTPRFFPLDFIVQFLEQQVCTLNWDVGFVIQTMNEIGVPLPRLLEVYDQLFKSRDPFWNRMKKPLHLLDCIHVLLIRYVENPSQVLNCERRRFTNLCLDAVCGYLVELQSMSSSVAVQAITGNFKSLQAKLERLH
Briefly: LacI/LacO array recruitment in cells.

B1: Nup85 (endogenous) (natural protein)
chain: MEELDGEPTVTLIPGVNSKKNQMYFDWGPGEMLVCETSFNKKEKSEMVPSCPFIYIIRKDVDVYSQILRKLFNESHGIFLGLQRIDEELTGKSRKSQLVRVSKNYRSVIRACMEEMHQVAIAAKDPANGRQFSSQVSILSAMELIWNLCEILFIEVAPAGPLLLHLLDWVRLHVCEVDSLSADVLGSENPSKHDSFWNLVTILVLQGRLDEARQMLSKEADASPASAGICRIMGDLMRTMPILSPGNTQTLTELELKWQHWHEECERYLQDSTFATSPHLESLLKIMLGDEAALLEQKELLSNWYHFLVTRLLYSNPTVKPIDLHYYAQSSLDLFLGGESSPEPLDNILLAAFEFDIHQVIKECSIALSNWWFVAHLTDLLDHCKLLQSHNLYFGSNMREFLLLEYASGLFAHPSLWQLGVDYFDYCPELGRVSLELHIERIPLNTEQKALKVLRICEQRQMTEQVRSICKILAMKAVRNNRLGSALSWSIRAKDAAFATLVSDRFLRDYCERGCFSDLDLIDNLGPAMMLSDRLTFLGKYREFHRMYGEKRFADAASLLLSLMTSRIAPRSFWMTLLTDALPLLEQKQVIFSAEQTYELMRCLEDLTSRRPVHGESDTEQLQDDDIETTKVEMLRLSLARNLARAIIREGSLEGS
B1: the “percent of transfected cells showing colocalization” value (from here on “percent”) in the assay with LacI-CFP-Nup153 was determined as 58%.

B2: Nup93 (endogenous) (natural protein)
chain: MDTEGFGELLQQAEQLAAETEGISELPHVERNLQEIQQAGERLRSRTLTRTSQETADVKASVLLGSRGLDISHISQRLESLSAATTFEPLEPVKDTDIQGFLKNEKDNALLSAIEESRKRTFGMAEEYHRESMLVEWEQVKQRILHTLLASGEDALDFTQESEPSYISDVGPPGRSSLDNIEMAYARQIYIYNEKIVNGHLQPNLVDLCASVAELDDKSISDMWTMVKQMTDVLLTPATDALKNRSSVEVRMEFVRQALAYLEQSYKNYTLVTVFGNLHQAQLGGVPGTYQLVRSFLNIKLPAPLPGLQDGEVEGHPVWALIYYCMRCGDLLAASQVVNRAQHQLGEFKTWFQEYMNSKDRRLSPATENKLRLHYRRALRNNTDPYKRAVYCIIGRCDVTDNQSEVADKTEDYLWLKLNQVCFDDDGTSSPQDRLTLSQFQKQLLEDYGESHFTVNQQPFLYFQVLFLTAQFEAAVAFLFRMERLRCHAVHVALVLFELKLLLKSSGQSAQLLSHEPGDPPCLRRLNFVRLLMLYTRKFESTDPREALQYFYFLRDEKDSQGENMFLRCVSELVIESREFDMILGKLENDGSRKPGVIDKFTSDTKPIINKVASVAENKGLFEEAAKLYDLAKNADKVLELMNKLLSPVVPQISAPQSNKERLKNMALSIAERYRAQGISANKFVDSTFYLLLDLITFFDEYHSGHIDRAFDIIERLKLVPLNQESVEERVAAFRNFSDEIRHNLSEVLLATMNILFTQFKRLKGTSPSSSSRPQRVIEDRDSQLRSQARTLITFAGMIPYRTSGDTNARLVQMEVLMN
For B2, the “percent” value was determined as 2% with LacI-CFP-Nup155 and 23% with LacI-CFP-Nup153.

B3: Nup160 (endogenous) (natural protein)
chain: MLHLSAAPPAPPPEVTATARPCLCSVGRRGDGGKMAAAGALERSFVELSGAERERPRHFREFTVCSIGTANAVAGAVKYSESAGGFYYVESGKLFSVTRNRFIHWKTSGDTLELMEESLDINLLNNAIRLKFQNCSVLPGGVYVSETQNRVIILMLTNQTVHRLLLPHPSRMYRSELVVDSQMQSIFTDIGKVDFTDPCNYQLIPAVPGISPNSTASTAWLSSDGEALFALPCASGGIFVLKLPPYDIPGMVSVVELKQSSVMQRLLTGWMPTAIRGDQSPSDRPLSLAVHCVEHDAFIFALCQDHKLRMWSYKEQMCLMVADMLEYVPVKKDLRLTAGTGHKLRLAYSPTMGLYLGIYMHAPKRGQFCIFQLVSTESNRYSLDHISSLFTSQETLIDFALTSTDIWALWHDAENQTVVKYINFEHNVAGQWNPVFMQPLPEEEIVIRDDQDPREMYLQSLFTPGQFTNEALCKALQIFCRGTERNLDLSWSELKKEVTLAVENELQGSVTEYEFSQEEFRNLQQEFWCKFYACCLQYQEALSHPLALHLNPHTNMVCLLKKGYLSFLIPSSLVDHLYLLPYENLLTEDETTISDDVDIARDVICLIKCLRLIEESVTVDMSVIMEMSCYNLQSPEKAAEQILEDMITIDVENVMEDICSKLQEIRNPIHAIGLLIREMDYETEVEMEKGFNPAQPLNIRMNLTQLYGSNTAGYIVCRGVHKIASTRFLICRDLLILQQLLMRLGDAVIWGTGQLFQAQQDLLHRTAPLLLSYYLIKWGSECLATDVPLDTLESNLQHLSVLELTDSGALMANRFVSSPQTIVELFFQEVARKHIISHLFSQPKAPLSQTGLNWPEMITAITSYLLQLLWPSNPGCLFLECLMGNCQYVQLQDYIQLLHPWCQVNVGSCRFMLGRCYLVTGEGQKALECFCQAASEVGKEEFLDRLIRSEDGEIVSTPRLQYYDKVLRLLDVIGLPELVIQLATSAITEAGDDWKSQATLRTCIFKHHLDLGHNSQAYEALTQIPDSSRQLDCLRQLVVVLCERSQLQDLVEFPYVNLHNEVVGIIESRARAVDLMTHNYYELLYAFHIYRHNYRKAGTVMFEYGMRLGREVRTLRGLEKQGNCYLAALNCLRLIRPEYAWIVQPVSGAVYDRPGASPKRNHDGECTAAPTNRQIEILELEDLEKECSLARIRLTLAQHDPSAVAVAGSSSAEEMVTLLVQAGLFDTAISLCQTFKLPLTPVFEGLAFKCIKLQFGGEAAQAEAWAWLAANQLSSVITTKESSATDEAWRLLSTYLERYKVQNNLYHHCVINKLLSHGVPLPNWLINSYKKVDAAELLRLYLNYDLLEEAVDLVSEYVDAVLGKGHQYFGIEFPLSATAPMVWLPYSSIDQLLQALGENSANSHNIALSQKILDKLEDYQQKVDKATRDLLYRRTL
In the case of B3, the “percent” value in the assay with LacI-CFP-Nup153 was 33%.

B4: Nup62 (endogenous) (natural protein)
chain: MSGFNFGGTGAPTGGFTFGTAKTATTTPATGFSFSTSGTGGFNFGAPFQPATSTPSTGLFSLATQTPATQTTGFTFGTATLASGGTGFSLGIGASKLNLSNTAATPAMANPSGFGLGSSNLTNAISSTVTSSQGTAPTGFVFGPSTTSVAPATTSGGFSFTGGSTAQPSGFNIGSAGNSAQPTAPATLPFTPATPAATTAGATQPAAPTPTATITSTGPSLFASIATAPTSSATTGLSLCTPVTTAGAPTAGTQGFSLKAPGAASGTSTTTSTAATATATTTSSSSTTGFALNLKPLAPAGIPSNTAAAVTAPPGPGAAAGAAASSAMTYAQLESLINKWSLELEDQERHFLQQATQVNAWDRTLIENGEKITSLHREVEKVKLDQKRLDQELDFILSQQKELEDLLSPLEELVKEQSGTIYLQHADEEREKTYKLAENIDAQLKRMAQDLKDIIEHLNTSGAPADTSDPLQQICKILNAHMDSLQWIDQNSALLQRKVEEVTKVCEGRRKEQERSFRITFD
Regarding B4, the “percent” value with LacI-CFP-Nup153 amounted to 56%.
